Each block holds one binder with its values, some of them ahead of it.
Target: RlucII-Rab7A (UniProt P51149 1-207)
Test: FRET or BRET

RlucII-Rab7A, sequence (P51149 whole entry): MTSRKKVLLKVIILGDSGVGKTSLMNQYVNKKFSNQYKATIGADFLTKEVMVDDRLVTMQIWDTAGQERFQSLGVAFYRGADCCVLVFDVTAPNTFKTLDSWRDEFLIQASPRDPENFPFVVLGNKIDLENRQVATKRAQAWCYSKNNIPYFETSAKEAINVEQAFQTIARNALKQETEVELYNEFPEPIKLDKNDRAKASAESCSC

- fold increase of BRET50 in CLN5KO cells against wild-type HeLa cells: 3 fold
B1: RILP-GFP10 (natural protein, UniProt Q96NA2 1-401, looked up)
chain: MEPRRAAPGVPGWGSREAAGSASAAELVYHLAGALGTELQDLARRFGPEAAAGLVPLVVRALELLEQAAVGPAPDSLQVSAQPAEQELRRLREENERLRRELRAGPQEERALLRQLKEVTDRQRDELRAHNRDLRQRGQETEALQEQLQRLLLVNAELRHKLAAMQTQLRAAQDRERERQQPGEAATPQAKERARGQAGRPGHQHGQEPEWATAGAGAPGNPEDPAEAAQQLGRPSEAGQCRFSREEFEQILQERNELKAKVFLLKEELAYFQRELLTDHRVPGLLLEAMKVAVRKQRKKIKAKMLGTPEEAESSEDEAGPWILLSDDKGDHPPPPESKIQSFFGLWYRGKAESSEDETSSPAPSKLGGEEEAQPQSPAPDPPCSALHEHLCLGASAAPEA

- fold increase of BRET50 in CLN5KO cells against wild-type HeLa cells: 2.85 fold
B2: GFP10-CLN3 (natural protein, UniProt Q13286 1-438, looked up)
chain: MGGCAGSRRRFSDSEGEETVPEPRLPLLDHQGAHWKNAVGFWLLGLCNNFSYVVMLSAAHDILSHKRTSGNQSHVDPGPTPIPHNSSSRFDCNSVSTAAVLLADILPTLVIKLLAPLGLHLLPYSPRVLVSGICAAGSFVLVAFSHSVGTSLCGVVFASISSGLGEVTFLSLTAFYPRAVISWWSSGTGGAGLLGALSYLGLTQAGLSPQQTLLSMLGIPALLLASYFLLLTSPEAQDPGGEEEAESAARQPLIRTEAPESKPGSSSSLSLRERWTVFKGLLWYIVPLVVVYFAEYFINQGLFELLFFWNTSLSHAQQYRWYQMLYQAGVFASRSSLRCCRIRFTWALALLQCLNLVFLLADVWFGFLPSIYLVFLIILYEGLLGGAAYVNTFHNIALETSDEHREFAMAATCISDTLGISLSGLLALPLHDFLCQLS

From article doi:10.1101/2020.12.24.423824 (bioRxiv, 2020)
